The record followed here is US20110028697.

For this series, the target named is T1, MazE (E. coli), MazE from Escherichia coli with His-Tag and Myc-Tag at the N-terminal end.
T1 chain: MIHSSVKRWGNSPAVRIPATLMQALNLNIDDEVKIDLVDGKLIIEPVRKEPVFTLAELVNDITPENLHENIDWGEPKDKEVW

B1: MazF (E. coli), N-terminally His-Tagged MazF from Escherichia coli (protein)
chain: MVSRYVPDMGDLIWVDFDPTKGSEQAGHRPAVVLSPFMYNNKTGMCLCVPCTTQSKGYPFEVVLSGQERDGVALADQVKSIAWRARGATKKGTVAPEELQLIKAKINVLIG
For B1, the “degradation of the substrate MazG30 by the ribonuclease activity of MazF (E. coli), gel electrophoresis” value was “When MazE and MazF were added to the substrate MazG30, degradation of the substrate MazG30 was inhibited and the band at the position corresponding to a 14mer polypeptide was decreased”.
